{"source": "patent US20230270832A1", "about": "“MAGEA1 IMMUNOGENIC PEPTIDES, BINDING PROTEINS RECOGNIZING MAGEA1 IMMUNOGENIC PEPTIDES, AND USES THEREOF” (TScan Therapeutics, Inc., priority 2021, published 2023)", "molecules": {"B1": {"name": "TCR 32-41: T cell receptor recognizing MAGEA1 epitope presented by HLA-C*07:02; alpha TRAV27/TRAJ52, beta TRBV12-4/TRBJ1-4; wild type, HM and MGTM sequences listed (protein)", "TCR alpha": "QLLEQSPQFLSIQEGENLTVYCNSSSVFSSLQWYRQEPGEGPVLLVTVVTGGEVKKLKRLTFQFGDARKDSSLHITAAQPGDTGLYLCAGDESISYGKLTFGQGTILTVHPNIQNPEPAVYQLKDPRSQDSTLCLFTDFDSQINVPKTMESGTFITDKCVLDMKAMDSKSNGAIAWSNQTSFTCQDIFKETNATYPSSDVPCDATLTEKSFETDMNLNFQNLLVMVLRILLLKVAGFNLLMTLRLWSS", "TCR beta": "DAGVIQSPRHEVTEMGQEVTLRCKPISGHDYLFWYRQTMMRGLELLIYFNNNVPIDDSGMPEDRFSAKMPNASFSTLKIQPSEPRDSAVYFCASSFLGWNEKLFFGSGTQLSVLEDLRNVTPPKVSLFEPSKAEIANKQKATLVCLARGFFPDHVELSWWVNGKEVHSGVCTDPQAYKESNYSYCLSSRLRVSATFWHNPRNHFRCQVQFHGLSEEDKWPEGSPKPVTQNISAEAWGRADCGITSASYQQGVLSATILYEILLGKATLYAVLVSTLVVMAMVKRKNS"}}, "key": {"[1]": {"tested_on": "cancer cells that express MAGEA1", "experiment": "T cell recognition assay on cancer cell lines", "type": "cell-based, human", "conditions": "IFNγ release, CD137/CD69 double-positive staining", "procedure": "To detect reactivity to cancer cell lines, wild-type cancer cell lines were seeded in a 96-well flat bottom plate and rested overnight at 37° C. in 5% CO2. On the following day, T cells were thawed, washed in complete RPMI-1640 medium, and added to the wells for an effector to target (E:T) ratio of 1:1 for INFγ measurement or 1:4 for flow cytometry analysis of activation-induced markers. The co-culture was incubated overnight. Cells were then harvested by pipetting, transferred to V-bottom 96-well plates, and centrifuged at 2,000 rpm for 2 minutes. The supernatant was collected for IFNγ measurement using a human IFNγ 3rd generation single-plex assay (Protein Simple). For flow cytometry analysis (Cytoflex S™ instrument, Beckman Coulter), cell pellets were washed with FACS buffer (PBS, 0.5% BSA, 2 mM EDTA) and stained for activation-induced markers, including PE-conjugated anti-CD137 (Miltenyi), AF647-conjugated anti-CD69 (Biolegend), and BV421-conjugated anti-CD8 (BioLegend).\nCancer cell lines were purchased from ATCC (Manassas, Vα.) and HEK293T cells were originally from Takara Bio (Shiga, Japan). All media were supplemented with […], except U266B1 which required 15% FBS, and 1% penicillin and incubated at 37° C. in 5% CO2. A101D (high MAGE-A1 expresing cells; TPM: 359), A2058 (medium MAGE-A1 expresing cells; TPM: 128), HS294T, and HEK293T cells were maintained in complete DMEM. SK-MEL-5 was cultured in complete EMEM, whereas U266B1, NCIH1437 and 786-0 required complete RPMI. Untransduced cancer cells were maintained in preparation for the T cell recognition assay, and 10^6 cells of each cell line were introduced with Incucyte® NucLight™ Red lentivirus reagent (Sartorius, Gottingen, Germany) Positively-labeled cells were selected using 1.5 ug/mL of puromycin over 72 hours."}, "[2]": {"target": "T1, epitope from MAGEA1 presented by HLA C*07:02 (Homo sapiens, UniProt P10321+P43355, DEL298-309)", "T1 construct": "an individual 90-amino acid fragments representing the top-scoring MAGEA1 tile from the screen; expressed in transfected cells; host or cells: MHC monoallelic C*07:02 HEK293T cells, lentivirally transduced with the MAGEA1 90-mer", "experiment": "Identification of MAGEA1-reactive TCRs from pool of TCR-transduced T cells (CD137/CD69 sorting, TCR sequencing)", "type": "cell-based", "conditions": "target cells transduced with MAGEA1 90-mer", "excerpt": "Ten orphan TCRs from this patient were pooled together to identify their cognate antigens using the genome-wide TargetScan technology. This screen identified MAGEA1 as a novel target. […] Note that the term “TCR32-39” may also be known as “TCR39” and the term “TCR32-41” may also be known as “TCR41”.\nTo identify the corresponding TCR from the pool of TCR-transduced T cells, Ml-IC monoallelic C*07:02 HEK293T cells engineered to express the MAGEA1 90mer were co-cultured with the pool of T cells at an E:T ratio of 1:1 for 16-24 hours. The T cells were mixed, collected by pipetting, and labeled with a CD137 microbead kit (Miltenyi) following the manufacturer's instructions. In brief, T cells were first stained with PE-labeled anti-CD137 and AF647-labeled anti-CD69 (BioLegend), washed, and then labeled with anti-PE microbeads. Labeled cells were enriched with an autoMACS® Pro separator (Miltenyi) and CD137 and CD69 double-positive cells were sorted on a MoFlo® Astrios™ Cell Sorter (Beckman Coulter). Genomic DNA was extracted from the sorted cells and the TCR expression cassette was PCR amplified and prepared for next generation sequencing (NGS)."}, "LAMB4-IR peptide": {"tested_on": "LAMB4-IR peptide", "experiment": "Peptide validation of off-target with dilutions of cross-reactive peptide", "type": "cell-based, human", "conditions": "LAMB4-IR peptide below 2,000 ng/mL", "procedure": "MHC-Flurry (O'Donnell et al. (2020) Cell Systems 42-48.e7) was used to predict peptides from LAMB4-IR with high-affinity binding to C*07:02. Predicted high-binding peptides were synthesized (GenScript). Monoallelic C*07:02 HEK293T reporter cells were pulsed with serial dilutions 0-20,000 ng/ml of the top peptide candidate for 1 hour and then co-cultured with TCR-transduced T cells (HN-32-41) at an E:T ratio of ˜2:1. After 4 hours, the cultures were harvested by pipetting and fluorescence of the reporter was detected using a CytoFLE.X™ S instrument (Beckman Coulter)."}}}
{"molecule": "B1", "values": [{"measurement": "recognition of cancer cells", "setting": "[1]", "result": "recognize cancer cells that express MAGEA1"}, {"measurement": "recognition of cancer cells", "setting": "[1]; listed as TCR 41", "result": "recognize"}, {"measurement": "recognition of MAGEA1 epitope / identification as MAGEA1-reactive TCR", "setting": "[2]; listed as HN-32-41", "result": "recognizing the same novel epitope from MAGEA1 presented by HLA C*07:02"}, {"measurement": "recognition of MAGEA1 epitope / identification as MAGEA1-reactive TCR", "setting": "[2]; listed as TCR 41", "result": "hits"}, {"measurement": "reactivity to cross-reactive off-target peptide", "setting": "LAMB4-IR peptide", "result": "poor reactivity"}]}
